B1: Didelphis aurita HAV (nucleic acid)
DNA: TCTTTGGTCTGGGGAACTAAAATACCAGACCCGCGTTTGCCTAGCGATATAGGCTTTAATTGTTGTTTGTCATTGTGCGTTTGATATGTGTTTTAATGTAAATAATAATTCTAGCAGGTTCTAGTTCTTGATCATGTCCTCTTTAAGGCACTCATTTCAACTTGCTATCTTTCTTTTCTTCCTTGGTTCTCCCTACACCAAATGCACTGGCCGCTGCGCCCGGCGGGGTCAACCACATGATTAGCATGTGGCTGTAGGTGTTGAAGGCTGGGACATGAACATCAATGGAATAGTGCGCATGCTTACTGGGGTCCATTGAAGTAGTGGGATCTTTCTATTGGGGTAGGCTACGGGTGAAACCCCTTAGGTTAATACTCATATTGAGAGATACCTTGGATAGGTTAACTGTGCTGGATATGGTTGAGTTTAACGACAAAAAGCCATCAACAGCTGTGGACAGAACCTCATCCTTAGATTGCTCACTATGGATATGTGCTCTGGGCGTGTTTCTTGCATGATGGCCATTGGTCAATTCATGCCTGGGCCAATGTAGGATTAGCCTTAAATTACTTTTTAAAAGTAGCCTCATTTAGCTGGACTAATGGTGGGGCGTATGATCCTGCATTTGGCCTCTGGGGTAATCAGGGGCATTTAGGTTTCCACATAATAGCAAAT
modifications: Hepatovirus A
B2: Hepatovirus G1 (nucleic acid, listed as Hepatovirus sp.)
DNA: GCAAGGGGTGGTTTTAACCTTGCACGCGTTTACCGTGCGTTAACGGTTTTCCATGTTTGTATGTCTTGTTTGTATTATGTGTTTTGTAAATATTAATTCCTGCAGGTTCAGGGTTCTTTAATCATGTTGGGCTGTACCCACACTCAACTTTTGGCCATAAGTGAGTTTCTTAACGAACCTTTTAACACAGGATGTTATTAGGGCCCAATATTTTCCCTGAGGCCTTCTTTGGCCTCTATTTTTTCCCCTTTTCTATCTCCTTGTATTCCGGGCTCACGTGATGCCAATGGACTGACCCATGCGCCCGTGGGGGTTAACTACTGGAGTAGCCAGTAGCTGTAGGTGCTAAAAGTCACGTACGTGTAAGACTGGACGAGACCTCTCAGCTATAACTGAAAGTAGTAAGTATGTCTGAACTTCTTGAAGGGGTAGGCTACGGGTGAAACCCCTTAGGTTAATACTCATATTGAGAGATACCTCTGATAGGTGAAGGTTTCCGGTAGAGGTGAGTTTAACGACAAAGCCTCTCAACGGATGTGGGCCCACCTCATCAGCAAGATGCTTTCATACCCAATACCGTAGGGGCTGGGTTGTTGAGTTCAGTCCCAAGCGTCCCTCCCGCAAGGTTGTAGGGGTACTCAGGGGCATTTAGGTTTCCACAATTAAACAAATACA
B3: Yancheng osbecks grenadier anchovy picornavirus (nucleic acid)
DNA: CCTTAGGGTCTGGAATGCGTCCTTTCTGGGCACTTCCACAATCCTAAGGTAATTTTCAACGCCAGCGATGGAGCGATATCCAAAGAACCTTTATGTTTTAGTTCGTCTTGTATGTTTATAAAATATAAAATTGGGATTAGCAACCCACAAAAACATTTTTGTTATTCTCACCACATGAGAGGGTGGTTAAACCTCTTCGTAACCTATCTTGCTTGATTGGCTACTTGGGCTAGATTTAGGACAACCTCTTTAGCAAGCCTAAATTACTCCTCGTACTTGCACCTGGTAACAGGCGTACCTGGAGGTTACGGTGGCGCTAACTTGGACTTCTCGTTAATTCGTGCAAGTTTAAATGATGCCTATTTTGAATACAAGAAAGTATGATAGTAACTTAGGGCGTGAAGTTCCGCTTAACATAAGGCAGTATAAGTACTAAGATAAGGTGTAAGACCTACCTTAATAACTGTTGTCTTTTCTCATGGTCTTTCCGTGGGAGCCCTTGCTAGGGGTAAAGTTAAGTATTCTCAAATAATTTTTCATTCAAACTCTTTCTCTCTGTTTT
B4: Falcovirus A1 (nucleic acid)
DNA: TAAAAGGGGACGCGGTGTGGCAGCTTTGGCTGTCATGCCGTGTTCTCCTTTTACCCCAAGGACTAGCCTTGGGGGTTTTCCAAATTCCTTTCCCTGTAGGCTTTACTTCTCTTTATCTATCTTTTCTGTAACTAAGTTTTGCCTATTCTAAAAATATTTTAGAATGTGTTTGGATGTAACTAAGTTTGTGCCTGCCCTAAAAATATTTTAGGGCTTGTTTGGATAACCTCGTCCCTTGTGTTCAGTGCCGCACAATTTGCTAGGCACTGTTCACTTCCTTTGTTTGTCCATTATGTATGCTAAGGTATGAATTCCATCATATGCTTAGCCTCTACATGCATAATCTTATTCCCTCCCTGGTGCAAACTACGCCCCCAACATATGTGAATCTTTTAAGCATATTCCTGACCCCACACATATATATGTGTTCTCGTGAATTCCCCCACCGTGAGGTGGTCACTTGGACGTGGTGTGTGTCACACAGCATATATATGATGCAGGATGTTGTTTTTAAGATAAGCATATGTCCTTAGTGCTTTGCATCATTTCCTCCACACCCCGTGAATGCGGCTAATCTTAACCCTGTTGGGTCCGTGGGTAAACCAACCCATTAACCACAGGACGGAACCGACTACTTTCGGGAGTGTGTGTTTCTTTTTCTTCTTTTGTCACT
B5: Hepatovirus D (nucleic acid)
DNA: CTTTGGATGCCCATAGTGCGGGGGTATAAATACCGCACTCCCTTTAGCTGTTCCGAGGGTATCGGAACCTATATGTTTGTTTTCTGTCTGTCTGTCAGCTTTATGTGTGCTCGTCCCCTTTAGGGCACTCATTTCAGCTTGCTTTCATTCTTTTCTTCCCCGGTTCTCACCTTACCGGAGGCACTGGCCGTTGCGCCCGGCGGGGTCAACCTAGTGATTAGCACTAGGCTGTAGGTGTCTAAAGTGGTGACATTAAGACTTGGTAACTGATTTCAGCACTGTTAACTGATGTTGGGGATGACTTGATTGATCTTCTGGAAGGGGTAGGCTACGGGTGAAACCCCTTATCTTAATACCACTATGTAGAGATAGATTCAGTAGGTTAAGGGCAGTGGATAAGGTTGAGTTCATTTTGGACAATAAACCTTCAACACTGGTGGACCCAATCTCACTGACCAGATGCTTTCTTGACTGATCCTTCAGAGGGGTGATTCTTCTGAATAGGTTGCCTTGACACTGATGCCTGAGACCCATTGGGTCGGGCCTTAAATCATGGAACTCCACTGGACTTTCATGGCCTAGCTTCTGCCTTAGACAGACTCTGGGGCCCCACGACCCTCTGGGCCCTTCGGGGTACTCAGGGGCATTTAGGTTTTTCCACAATTAAAAGAGTTA
modifications: Hepatovirus D
B6: Hepatovirus H2 (nucleic acid, listed as Hepatovirus sp.)
DNA: GTCATGTTTCTCTTTAAGAACACTCAATTTTGGCCATAAGTGAGACTCTTGTCGAACCTTTCATGTCAGGACCATGTTAGGGCCATTATCCTTTTCCCTGGGGCATTCTTCTTGCCCCTGTTTCATCTTTCTATCATCTTTCTTCCGGGCTCTCACAATGCCAATGGAGCGACCGATGCGCACGTCGGGGTTAACCCATGGATTAGCCATGGGCTGTAGCTGCTAAAAGTTGTGACTCCTGAAGCATACTATCAATGGTAGTAGATGTAACTGAAACACTGAAGCTTCTCTGATCTTGAAAGAAGGGTAGGCTACGGGTGAAACCCTTCAGGTTAATACTCATATTGAGAGATACCTTTGGTAGGTTAACGTTGGCGGATAATGTTGAGTTTAACGACAATAAACATTCAACGCCTGTGGGCGAACCTCACCAATTTCATGCTTTGAAGTGAATGTGCGTAGGGTCTCTATCGGAGATGCTATGTGGATGGTGCCCTCCCTGGAAACAGGTTGTAGGGGTACTCAGGTGCACTTAGGTTTCCACATTTTAAAGATTTTTC
B7: Tremovirus B (nucleic acid)
DNA: TTCAAATGGCCCCTGGGTTGATACCCAGTGGTCATTTGGACACTTTGGTAAGGAGGTGTAATTATCCTTCCCATGTGGAACCTAGTGCTTAGGTTTACTTTATATGTTCTTTGTTTGTCCTTTGTACTTTCTATCGGGCAATCTTGTTGTTCAATACAATATGTATTTGAACTGCCTAAGATAAATTCAGTTTTCAACCAACCCCTCTCTTGGGGTTGTGTCTTTCTTTCTTTCTTATATCCTCTTAAGCTGACTTACTTGCTAATCCGACTCCTCGTCAACGGGAGGGTAAAGCAGTATCACTAGGGTATTGTGATGTAGGAGAAAAAGTAAGTAGAGATAGTGCATGTAACGAAAGTGACTTGGTACTTTAAACTCTCTTAATCCCAAAGTGTGGTATTGGTCATGTTGGAGTAGGCTACGGGTGAAACTCCTTCACATTTAGTAATGTGTTCACACGCTAACGCTACGGTAGATGACAGACTAGGTCTTATTCTCAACGTAGGGGGACGGGTGTATGTTCATGATTAGCCACATATTAAGGTTTTGAGGGGCTGAGTCATATAAGTATGTGCATTAATTTCTGGTACTGGTCCCTGGGGACTGGCCCTTTTCTAGGTTGATTTTAGTTTCCCCAATTTTTAAAAACTAATGAGATTTACGAC
modifications: Tremovirus B
B8: Turkey Gallivirus M176 (nucleic acid, listed as Gallivirus sp.)
DNA: CCACTCGCACTTCCTGGATAGTGCGTTAGATATGCCCGACATATCGCTTCCAGGACCAAAGCCCCCCTTTTCTCTTTCCCAACCAGCTTCGCCACTCAAGCTGTAATTCCATGTCCGGTCTTTCCGGCCTTAGTATCATGGAAATGTGGTCGTGCTCAAATGAAATTGAGTTGACATTGATCAATGAAAGTTGCACTGAACTTTGCTAAACTGGCTAGCGCCACCTGGTGTGTGCCGTTGGTCTCCTCACATGGTAACATGTGCCAACGGGCCCGAAAGGCTAGTGGGCAATTACCGCTCCAAGGGAGGGGTACCCACCCCGACCTGAACAGCGGTAATGAAGCTCACCTCCCAGGCTCTGACCCCGAGAAGTTTAGTTATTTAGTAGGTGTAATTAGTACTTGTGATTGGTCAATTTGATAGTAGTTTGAAACGTTATGGATGAATGAGTAGACCCCCTGAAGGTACCCCATTACATGGGATCTGATCAGGGCCACATTCTGCGTGTCTCCCCGCACTTGTGGTTAAAACCATGAAAGTTCATCCCAAACAATCTTTTCCTCTTCTTTTTCTTTTAGTGGTGACAACCTACTGGATTGGTGATTACCAATCTGTACTAGTGTTGTATTAAGACTTGTTGTGTGGAGAAAATGGACTCTTTCAAGAAGATTTTTG

In the series the test system is HEK293 cells. Format: cell-based, human. Conditions: luminescence from secreted Gluc in supernatant 24 hours after transfection of HEK293 cells; circular RNA encoding Gluc with the named IRES (UTR truncated to 675 nt).
B1 returned an Expression of 1.38E+05. B2 returned an Expression of 1.41E+05. As for B3, the figure is 1.57E+06; as for B4, 1.48E+05; as for B5, 1.47E+06.

The molecule B6 gave an Expression of 1.08E+05. As for B7, the figure is 1.31E+05.

B8 returned an Expression of 4.37E+05.

For the origin of these results see patent US20230226096A1 (Orna Therapeutics, Inc., priority 2020, published 2023).
